For assay [1], the target named is T1, FKBP12 protein having the sequence of SEQ ID NO: 7, with 4-azido-L-phenylalanine at position 1, conjugated to … (Homo sapiens (Human), UniProt P62942 2-108, 4-azido-L-phenylalanine in place of methionine at position 1; the azide is click-coupled to the DBCO-dT at the 5' end of oligo-Tc (Oligo-Tc2, SEQ ID NO: 5), which is ligated to the double-stranded …).
T1 construct: In the assay it is present as the binary complex with rapamycin (500 nM)
As to the kind of experiment: magnetic tweezers, force cycling, FHF=1.4 pN, T=298 K, 500 nM rapamycin; kD=1/<τD> averaged over several molecules.

Assay [2] concerns the target T1, FKBP12 protein having the sequence of …. As to the kind of experiment: magnetic tweezers, spontaneous fluctuations at constant force FCF=0.04 pN, 25 °C, 500 nM rapamycin; average over several DNA molecules and inversion; no free FRB in solution; FCF=0.04 pN, 25 C. The protocol: (§1) Example 10 was performed either at 25° C. or at 30° C. in DB reaction buffer (20 mM K-Hepes pH 7.8, 100 mM KCl, 5 mM MgCl₂, 2 mM DTT, 0.1% Tween-20, 0.1 mg/ml BSA). Measurements were also performed at 19.2° C., 21.7° C., 25.4° C. and 29.1° C. (see FIG. 15E).

For assay [3] the target is unchanged. The assay can be described thus: magnetic tweezers, force cycling, FHF=1.4 pN, T=303 K, 500 nM rapamycin.
Description: (§2) At each passage at FLF=0.05 pN for time TLF=13 s, the test molecules associate, then, after passage at FHF=1.4 pN, they separate after a time indicated as t_HF-A. The high force is applied for time THF=155 s. […] C) Temporal monitoring of the extension of the double-stranded DNA molecule when the force is cycled between high value and low value (TS: schematic diagram of the FHF/FLF cycles). At each passage at FLF=0.05 pN for time TLF=14 s the test molecules associate and then, after passage at FHF=6 pN, they separate after a time indicated as t_HF-A. The high force is applied for time THF=125 s. […] The curves are provided for several temperatures: OT=29.1° C.; […]T=25.4° C.; ⋄ T=21.7° C.; x T=19.2° C. […] F) Variation of XD, the distance separating the transition state from the complex during dissociation, as a function of temperature. […] A linear fit in agreement with the Arrhenius-Bell model, ln[kD⁰]=A−ED/kBT, makes it possible to determine ED, the activation energy of the dissociation reaction.
as §1

Assay [4] shares this target. As to the kind of experiment: derived as kA=kD/KD; magnetic tweezers, FCF=0.04 pN, 25 °C, 500 nM rapamycin; derived as kA=kD/KD. The method, then: as §1
(§3) Said fraction of time spent by the test molecules in associated form is determined according to (Σt_{CF-A})/tₜₒₜₐₗ, where tₜₒₜₐₗ is the total time during which the fluctuations are recorded and analyzed.

The target is the same in assay [5]. As to the kind of experiment: magnetic tweezers, spontaneous fluctuations at FCF=0.04 pN, 25 °C, 500 nM rapamycin, with 0-200 nM free FRB in solution; average over concentrations; 0-200 nM free FRB in solution; averaged over concentrations. The protocol:
as §1, §3

The target is the same in assay [6]. As to the kind of experiment: magnetic tweezers, force cycling, FHF=6 pN, T=303 K, 500 nM rapamycin.
Description: as §2, §1

Assay [7] concerns the target CLIP-PHloop protein (10xHis-CLIP-tagged glycine receptor β loop) (CLIP tag covalently bound (thioether) to the benzylcytosine at an extremity of the DNA molecule). The assay can be described thus: single-molecule magnetic tweezers; SNAP-gephyrin and CLIP-PHloop attached to the DNA molecule; force cycling FLF=0.01 pN for 13 s / FHF=1.1 pN for 52 s; 19.2 °C; GB buffer [continued].
Description: HF corresponds to the application of a high force (“High Force”); LF corresponds to the application of a low force (“Low Force”). The test molecules can be either associated (A for “Associated”) or dissociated (D for “Dissociated”).

T1 sequence (P62942 other isoform, or with tags, fused parts or gaps limits assumed): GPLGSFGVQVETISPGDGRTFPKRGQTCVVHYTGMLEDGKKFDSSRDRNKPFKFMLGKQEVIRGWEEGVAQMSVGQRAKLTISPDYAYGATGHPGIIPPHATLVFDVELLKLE
Sequence of CLIP-PHloop protein (10xHis-CLIP-tagged glycine receptor β loop) (CLIP tag covalently bound (thioether) to the benzylcytosine at an extremity of the DNA molecule) (chain, as listed by the source limits assumed): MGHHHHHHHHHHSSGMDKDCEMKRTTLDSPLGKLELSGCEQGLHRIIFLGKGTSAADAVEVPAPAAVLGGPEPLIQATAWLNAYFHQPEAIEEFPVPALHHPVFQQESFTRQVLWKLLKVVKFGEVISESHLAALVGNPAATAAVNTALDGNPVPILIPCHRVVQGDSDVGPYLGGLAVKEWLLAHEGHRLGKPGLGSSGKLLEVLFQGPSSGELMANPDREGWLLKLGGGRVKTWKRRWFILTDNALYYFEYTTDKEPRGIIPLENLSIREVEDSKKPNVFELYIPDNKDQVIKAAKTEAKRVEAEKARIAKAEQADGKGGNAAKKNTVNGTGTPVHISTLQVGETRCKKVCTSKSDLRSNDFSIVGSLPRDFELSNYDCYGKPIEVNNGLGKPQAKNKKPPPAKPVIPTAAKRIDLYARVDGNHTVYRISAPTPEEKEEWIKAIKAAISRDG

B1: FRB protein (FRB subunit of the mTOR protein complex) having the sequence of SEQ ID NO: 6, with 4-azido-L-phenylalanine at position 2,020, conjugated to an … (other)
chain: GPLGSFILWHEMWHEGLEEASRLYFGERNVKGMFEVLEPLHAMMERGPQTLKETSFNQAYGRDLMEAQEWCRKYMKSGNVKDLTQAWDLYYHVFRRISKQLPQL
modifications: 4-azido-L-phenylalanine in place of alanine at position 2,020; the azide is click-coupled to the DBCO-dT at the 5' end of oligo-Tc (Oligo-Tc1, SEQ ID NO: 4), which is ligated to the double-stranded DNA molecule
notes: Free FRB added in solution (0-200 nM) is described as identical to the test molecule
B1: the koff in assay [1] was 0.0322 s⁻¹; in assay [2], 0.0341 s⁻¹; in assay [3] it was 0.0484 s⁻¹; in assay [5] it was 0.0327 s⁻¹; in assay [6] it was 0.0649 s⁻¹. The molecule further gave a kon in assay [4] of 4.5e+06 M⁻¹ s⁻¹.

B2: SNAP-gephyrin rC4 (other)
chain: MRGSHHHHHHGSACELSSGLEVLFQGPHMASMDKDCEMKRTTLDSPLGKLELSGCEQGLHEIKLLGKGTSAADAVEVPAPAAVLGGPEPLMQATAWLNAYFHQPEAIEEFPVPALHHPVFQQESFTRQVLWKLLKVVKFGEVISYQQLAALAGNPAATAAVKTALSGNPVPILIPCHRVVSSSGAVGGYEGGLAVKEWLLAHEGHRLGKPGLGSSGGTMATEGMILTNHDHQIRVGVLTVSDSCFRNLAEDRSGINLKDLVQDPSLLGGTISAYKIVPDEIEEIKETLIDWCDEKELNLILTTGGTGFAPRDVTPEATKEVIEREAPGMALAMLMGSLNVTPLGMLSRPVCGIRGKTLIINLPGSKKGSQECFQFILPALPHAIDLLRDAIVKVKEVHDELEDLPSPPPPLSPPPTTSPHKQTEDKGVQCEEEEEEKKDSGVASTEDSSSSHITAAALAAKIPDSIISRGVQVLPRDTASLSTTPSESPRAQATSRLSTASCPTPKARLPSCSSTYSVSEVQSRCSSKENILRASHSAVDITKVARRHRMSPFPLTSMDKAFITVLEMTPVLGTEIINYRDGMGRVLAQDVYAKDNLPPFPASVKDGYAVRAADGPGDRFIIGESQAGEQPTQTVMPGQVMRVTTGAPIPCGADAVVQVEDTELIRESDDGTEELEVRILVQARPGQDIRPIGHDIKRGECVLAKGTHMGPSEIGLLATVGVTEVEVNKFPVVAVMSTGNELLNPEDDLLPGKIRDSNRSTLLATIQEHGYPTINLGIVGDNPDDLLNALNEGISRADVIITSGGVSMGEKDYLKQVLDIDLHAQIHFGRVFMKPGLPTTFATLDIDGVRKIIFALPGNPVSAVVTCNLFVVPALRKMQGILDPRPTIIKARLSCDVKLDPRPEYHRCILTWHHQEPLPWAQSTGNQMSSRLMSMRSANGLLMLPPKTEQYVELHKGEVVDVMVIGRL
modifications: SNAP tag covalently bound (thioether) to the benzylguanine at an extremity of the DNA molecule
notes: also called Gephyrin construct rC4
In the case of B2, the binding result in assay [7] was “binds”.

The term koff denotes the first-order rate constant of dissociation. A high value points to a short-lived complex. Broadly, the kon is the rate constant with which the complex forms. A low value points to slow association.
